Residue numbers refer to the chain shown, from its start.
T1: biotin-labeled human CD154 (human, UniProt P29965 113-261, limits assumed, biotin-labeled)
T1 construct: also called biotinylated human CD154
T1 sequence (looked up): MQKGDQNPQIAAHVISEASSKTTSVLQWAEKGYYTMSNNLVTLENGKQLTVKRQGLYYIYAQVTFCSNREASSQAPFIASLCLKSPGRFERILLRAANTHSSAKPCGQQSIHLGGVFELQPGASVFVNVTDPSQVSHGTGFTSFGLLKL

B1: 154R3A01#1 (antibody, human IgG1, kappa, L234A L235A, N297A)
heavy: QVQLVESGGGLVQPGRSLRLSCAASGFTFSNAWMHWVRQAPGKGLEWVAQIKDRVNQYANYYAESVKGRFTISRDDSKNSIYLQMNSLKTEDTAVYYCRYVHYGLTGYFSGQGGVDAWGQGTTVTVSSASTKGPSVFPLAPSSKSTSGGTAALGCLVKDYFPEPVTVSWNSGALTSGVHTFPAVLQSSGLYSLSSVVTVPSSSLGTQTYICNVNHKPSNTKVDKKVEPKSCDKTHTCPPCPAPEAAGGPSVFLFPPKPKDTLMISRTPEVTCVVVDVSHEDPEVKFNWYVDGVEVHNAKTKPREEQYASTYRVVSVLTVLHQDWLNGKEYKCKVSNKALPAPIEKTISKAKGQPREPQVYTLPPSRCELTKNQVSLSCAVKGFYPSDIAVEWESNGQPENNYKTTPPVLDSDGSFFLVSKLTVDKSRWQQGNVFSCSVMHEALHNHYTQKSLSLSPDYKDDDDK
chain: EPKSSDKTHTCPPCPAPELLGGPSVFLFPPKPKDTLMISRTPEVTCVVVDVSHEDPEVKFNWYVDGVEVHNAKTKPREEQYNSTYRVVSVLTVLHQDWLNGKEYKCKVSNKALPAPIEKTISKAKGQPREPQVCTLPPSRDELTKNQVSLWCLVKGFYPSDIAVEWESNGQPENNYKTTPPVLDSDGSFFLYSKLTVDKSRWQQGNVFSCSVMHEALHNRYTQKSLSLSP
light: DIVMTQSPLSLPVTPGEPASISCRSSQSLVHSNRNTYLHWYQQKPGQAPRLLIYKVSNRFSGVPDRFSGSGSGTDFTLKISRVEAEDVGVYYCGQGTQVPYTFGQGTKLEIKRTVAAPSVFIFPPSDEQLKSGTASVVCLLNNFYPREAKVQWKVDNALQSGNSQESVTEQDSKDSTYSLSSTLTLSKADYEKHKVYACEVTHQGLSSPVTKSFNRGEC
notes: One-arm antibody
B2: 154R4B03#4 (antibody, human IgG1, kappa, L234A L235A, N297A)
heavy: QVQLVESGGGLVQPGRSLRLSCAASGFTFSNAWMHWVRQAPGKGLEWVAQIKDKQSQYANYYAPSVKGRFTISRDDSKSSIYLQMNSLKTEDTAVYYCRYVHYQSTSYSFYQGGVDAWGQGTTVTVSSASTKGPSVFPLAPSSKSTSGGTAALGCLVKDYFPEPVTVSWNSGALTSGVHTFPAVLQSSGLYSLSSVVTVPSSSLGTQTYICNVNHKPSNTKVDKKVEPKSCDKTHTCPPCPAPEAAGGPSVFLFPPKPKDTLMISRTPEVTCVVVDVSHEDPEVKFNWYVDGVEVHNAKTKPREEQYASTYRVVSVLTVLHQDWLNGKEYKCKVSNKALPAPIEKTISKAKGQPREPQVYTLPPSRCELTKNQVSLSCAVKGFYPSDIAVEWESNGQPENNYKTTPPVLDSDGSFFLVSKLTVDKSRWQQGNVFSCSVMHEALHNHYTQKSLSLSPDYKDDDDK
chain: B1 chain
light: B1 light
notes: One-arm antibody
B3: 154R3A01#3 (antibody, human IgG1, kappa, L234A L235A, N297A)
heavy: B1 heavy with T28A
chain: B1 chain
light: B1 light
notes: One-arm antibody
B4: 154R4B03#1 (antibody, human IgG1, kappa, L234A L235A, N297A)
heavy: B2 heavy with S79N
chain: B1 chain
light: B1 light
notes: One-arm antibody
B5: 154R3A01#4 (antibody, human IgG1, kappa, L234A L235A, N297A)
heavy: B1 heavy with S65C
chain: B1 chain
light: B1 light
notes: One-arm antibody
B6: 154R3B01#1 (antibody, human IgG1, kappa, L234A L235A, N297A)
heavy: QVQLVESGGGLVQPGRSLRLSCAASGFTFSSAWMHWVRQAPGKGLEWVAQIKDKQNQYNAYYAESVKGRFTISRDDSKNSIYLQMNSLKTEDTAVYYCRYVHYATSDGFLPYFGVDAWGQGTTVTVSSASTKGPSVFPLAPSSKSTSGGTAALGCLVKDYFPEPVTVSWNSGALTSGVHTFPAVLQSSGLYSLSSVVTVPSSSLGTQTYICNVNHKPSNTKVDKKVEPKSCDKTHTCPPCPAPEAAGGPSVFLFPPKPKDTLMISRTPEVTCVVVDVSHEDPEVKFNWYVDGVEVHNAKTKPREEQYASTYRVVSVLTVLHQDWLNGKEYKCKVSNKALPAPIEKTISKAKGQPREPQVYTLPPSRCELTKNQVSLSCAVKGFYPSDIAVEWESNGQPENNYKTTPPVLDSDGSFFLVSKLTVDKSRWQQGNVFSCSVMHEALHNHYTQKSLSLSPDYKDDDDK
chain: B1 chain
light: B1 light
notes: One-arm antibody
B7: 154R3A01#2 (antibody, human IgG1, kappa, L234A L235A, N297A)
heavy: B1 heavy with F70L
chain: B1 chain
light: B1 light
notes: One-arm antibody
B8: 154R3F02#2 (antibody, human IgG1, kappa, L234A L235A, N297A)
heavy: QVQLVESGGGLVQPGRSLRLSCAASGFTFSNAWMHWVRQAPGKGLEWVAQIKDRASGYNNYYAESVKGRFTISRDDSKNSIYLQMNSLKTEDTAVYYCRYVHYAQSVSAFFQYGVDAWGQGTTVTVSSASTKGPSVFPLAPSSKSTSGGTAALGCLVKDYFPEPVTVSWNSGALTSGVHTFPAVLQSSGLYSLSSVVTVPSSSLGTQTYICNVNHKPSNTKVDKKVEPKSCDKTHTCPPCPAPEAAGGPSVFLFPPKPKDTLMISRTPEVTCVVVDVSHEDPEVKFNWYVDGVEVHNAKTKPREEQYASTYRVVSVLTVLHQDWLNGKEYKCKVSNKALPAPIEKTISKAKGQPREPQVYTLPPSRCELTKNQVSLSCAVKGFYPSDIAVEWESNGQPENNYKTTPPVLDSDGSFFLVSKLTVDKSRWQQGNVFSCSVMHEALHNHYTQKSLSLSPDYKDDDDK
chain: B1 chain
light: B1 light
notes: One-arm antibody
B9: 154R4F08#1 (antibody, human IgG1, kappa, L234A L235A, N297A)
heavy: QVQLVESGGGLVQPGHSLRLSCAASGFTFSNAWMHWVRQAPGKGLEWVAQIKDRGNNYAAYYAESVKGRFTISRDDSKNSIYLQMNSLKTEDTAVYYCRYVHYGSYFFASFYFGVDIWGQGTTVTVSSASTKGPSVFPLAPSSKSTSGGTAALGCLVKDYFPEPVTVSWNSGALTSGVHTFPAVLQSSGLYSLSSVVTVPSSSLGTQTYICNVNHKPSNTKVDKKVEPKSCDKTHTCPPCPAPEAAGGPSVFLFPPKPKDTLMISRTPEVTCVVVDVSHEDPEVKFNWYVDGVEVHNAKTKPREEQYASTYRVVSVLTVLHQDWLNGKEYKCKVSNKALPAPIEKTISKAKGQPREPQVYTLPPSRCELTKNQVSLSCAVKGFYPSDIAVEWESNGQPENNYKTTPPVLDSDGSFFLVSKLTVDKSRWQQGNVFSCSVMHEALHNHYTQKSLSLSPDYKDDDDK
chain: B1 chain
light: B1 light
notes: One-arm antibody
B10: 154R5F08#3 (antibody, human IgG1, kappa, L234A L235A, N297A)
heavy: B9 heavy with H16R, R54K, N57Q, A60T, F70Y, S105T, S110L, F111P, Y112A
chain: B1 chain
light: B1 light
notes: One-arm antibody
B11: 154R5E11#3 (antibody, human IgG1, kappa, L234A L235A, N297A)
heavy: B9 heavy with H16R, T123A
chain: B1 chain
light: B1 light
notes: One-arm antibody
B12: 154R5A02#2 (antibody, human IgG1, kappa, L234A L235A, N297A)
heavy: B9 heavy with H16R, A59N, A60T, E64P, V101A, A109S, S110G, F111S, Y112S
chain: B1 chain
light: B1 light
notes: One-arm antibody
B13: 154R5F08#1 (antibody, human IgG1, kappa, L234A L235A, N297A)
heavy: B9 heavy with H16R, R54K, N57Q, A60T, S105T, S110L, F111P, Y112A
chain: B1 chain
light: B1 light
notes: One-arm antibody
B14: 154R5A02#1 (antibody, human IgG1, kappa, L234A L235A, N297A)
heavy: B9 heavy with H16R, A59N, A60T, E64P, A109S, S110G, F111S, Y112S
chain: B1 chain
light: B1 light
notes: One-arm antibody

The binders below were run against T1, biotin-labeled human CD154 (assay: ECL competition: biotinylated CD154, CD3ε homodimer as competitor [1]).
Procedure: (§1) Next, each obtained IgG was evaluated for its binding to CD3 and human CD154 at the same time by the competition method (electrochemiluminescence method (ECL method)).
(§2) A TBST solution containing 0.5% BSA (referred to as a blocking solution; the TBST solution was TBS (manufactured by Takara Bio Inc.) supplemented with 0.1% Tween 20) was added at 150 μL/well to streptavidin plate (MSD K.K.), and the plate was incubated at room temperature for 1 hour or longer. After removal of the blocking solution, each well was washed three times with 250 μL of a TBST solution. The antibody-antigen complex solution was added thereto at 50 L/well, and the plate was incubated at room temperature for 1 hour so that the biotinylated antigen-antibody-detection sulfo-tag antibody complex solution bound via the biotinylated antigen to the streptavidin plate. After removal of the antibody-antigen complex solution, each well was washed three times with a TBST solution, and a solution of 4× READ buffer (MSD K.K.) diluted 2-fold with water was added thereto at 150 μL/well, followed by the detection of the luminescence signal of the sulfo-tag using Sector Imager 2400 (MSD K.K.).

Binder | Relative ECL reaction (to no antigen coating), CD3ε[+]
B1 | 21
B2 | 20
B3 | 19
B4 | 18
B5 | 4
B6 | 18
B7 | 4
B8 | 16
B9 | 1

These binders were tested against T1, biotin-labeled human CD154 (assay: ECL competition: biotinylated CD154, CD3ε homodimer as competitor [2]).
Procedure: as §1, §2

Binder | Relative ECL reaction (to no antigen coating), CD3ε[+]
B10 | 10
B11 | 1
B12 | 106
B13 | 13
B14 | 10

Source: patent US20220040297A1 (Chugai, published 2022)
